{
  "source": "patent US6518054B1",
  "about": "“Metallo-endopeptidases” (Rijksuniverstteit Te Groningen, priority 1997, dated 2003)",
  "format_in_all_cases": "biochemical",
  "key": {"casein [1]": {"tested_on": "casein", "assay": "Hydrolysis of 10% (w/v) casein compared with commercial enzyme preparations", "settings": "casein 10% w/v", "text": "(§1) In industrial applications enzymes are used for the hydrolysis of protein preparations derived from different sources. Here we show the results of a comparative study in which the rate and quality of hydrolysis of casein and yeast protein preparations by the 8-fold mutated TLP-ste variant was compared with that obtained by the hydrolysis using 3 different enzyme preparations that are used for these purposes in industry. The hydrolysis conditions were chosen such that they were optimal for each of the enzyme preparation under study. The hydrolysis products were separated in an acid-soluble and a not acid-soluble fraction. The amount of acid-soluble protein material formed upon hydrolysis was determined by means of measuring the absorbance at 275 nm, whereas the composition of the acid-insoluble hydrolysis products was studied using SDS-PAGE.\n(§2) Substrate (10% w/v of casein or yeast protein preparation) was incubated in 50 mM Tris-MES, 5 mM CaCl2, pH 6.5 at 50° C. (Enzyme I, Favourzyme™ 1000L); 50 mM Tris-MES, 5 mM CaCl2, pH 6.0 at 60° C. (Enzyme II, BioProtease N100L); 50 mM Tris-MES, 5 mM CaCl2, pH 8.0 at 60° C. […] The amount of acid-soluble protein released by hydrolysis was determined by measuring the absorbance of the samples at 275 nm. The acid precipitated proteins were redisolved in 6 M urea and subsequently analysed by SDS-PAGE (15% running gel)."}, "[2]": {"tested_on": "yeast protein preparation", "assay": "Hydrolysis of 10% (w/v) yeast proteins compared with commercial enzyme preparations", "settings": "yeast proteins 10% w/v", "text": "as §1, §2"}, "[3]": {"assay": "Effect of denaturing agents on protease activity (FaGLa, 50° C.)", "description": "Protease activities were determined in 50 mM MOPS (pH 7.0), 5 mM CaCl2, 50 mM NaCl, 0.01% Triton X-100, 0.5% isopropanol, using 100 μM FaGLa (3-(-2-furylacryloyl)-L-glycyl-L-leucine amide) as a substrate at 50° C. Enzymes and denaturing agents were preincubated in the reaction mixture at 50° C. for 15 minutes prior to the addition of the substrate. The reaction was followed by measuring the change in absorbance at 345 nm. […] Activities are expressed as percentage of the activity in the absence of denaturant."}, "casein [4]": {"tested_on": "casein", "assay": "Specific activity with casein as substrate at 37° C.", "description": "(§3) Specific activities for TLP-ste and the 8-fold mutant were determined using casein (0.8%) as a substrate in 50 mM Tris-HCl (pH 7.5), 5 mM CaCl2 at 37° C. […] (pH 7.0), 5 mM CaCl2, 5% or 1% DMSO, 0.5% isopropanol, 0.01% Triton X-100, 50 mM NaCl, with […] of substrate, by measuring the decrease in absorption at 345 nm (Î345=−317 M^−1·cm^−1). Stock solutions of the furylacryloylated dipeptides, (Sigma, St. Louis, […].) were prepared by dissolving 3-(-2-furylacryloyl)-L-glycyl-L-leucine amide (FaGLa) and 3-(-2-furylacryloyl)-L-alanyl-L-phenylalanine amide (FaAFa) in DMSO. The kcat/Km ratios of the enzymes were determined by varying the enzyme concentrations (over a 50 fold range) under pseudo-first order conditions by measuring the initial activity, essentially according to the method described by Feder^30. The Ki for phosphoramidon (N-[a-L-rhamnopyrano-syl-oxyhydroxyphophinyl]-L-leucyl-L-tryptophan) was determined by a 30 minute preincubation of a 100 pM protease solution with varying concentrations of the inhibitor (10^−8 to 10^−3 M), in 50 mM MOPS (pH 7.0), 5 mM CaCl2, 50 mM NaCl, prior to the addition of the furylacryloated substrate. For determination of the Ki FaAFa was used as the substrate. Since the Km of the substrate for the enzyme is higher than the concentration used, IC50 values were taken to be equal to Ki values. The optimum temperature for activity was determined by incubating proteases with casein (0.8%) in 50 mM Tris-HCl (pH 7.5), 5 mM CaCl2, at different temperatures for 30 minutes, after which the amount of released peptides, indicative for activity, was measured^11."}, "[5]": {"tested_on": "α-amylase from Bacillus licheniformis", "assay": "Hydrolysis of protease resistant α-amylase (SDS-PAGE)", "settings": "60 minutes", "description": "As an example of the enzymatic activity of the 8-fold mutant we tested the hydrolysis of protease resistant α-amylase from Bacillus licheniformis by the 8-fold mutant. B. licheniformis α-amylase (1 mg/ml) in 50 mM MOPS, pH 7.0, 5 mM CaCl2, 0.01% Triton X-100 was incubated with purified TLP-ste (1 μg/ml), the 8-fold mutant or without protease for 60 minutes at the temperature indicated. The reaction volume was 500 μL. […] Precipitates (only observed in the 100° C. samples) were collected by centrifugation and redissolved in 500 μL 6 M Urea. Both supernatants and redissolved precipitates were subjected to standard SDS-PAGE, including pre-treatment with sample loading buffer (5 minutes at 100° C.). The samples were identical in size (20 μL supernatant and 20 μL dissolved precipitate). Gels were stained with Coomassie-brilliant blue."}, "casein [6]": {"tested_on": "casein", "assay": "Optimum temperature for activity with casein", "description": "as §3"}, "[7]": {"settings": "enzyme 0.05% v/v, pH 7.0, 90° C."}},
  "data": [
    {"molecule": "8-fold mutant: TLP-ste with A4T, T56A, G58A, T63F, S65P, A69P and a disulfide bridge G8C-N60C (protein) VAGTSTVCVGRGVLGDQKYINTTYSSYYGYYYLQDNTRGSGIFTYDGRNRTVLPGSLWADADCQFFAPYDAPAVDAHYYAGVVYDYYKNVHGRLSYDGSNAAIRSTVHYGRGYNNAFWNGSQMVYGDGDGQTFLPFSGGIDVVGHELTHAVTDYTAGLVYQNESGAINEAMSDIFGTLVEFYANRNPDWEIGEDIYTPGVAGDALRSMSDPAKYGDPDHYSKRYTGTQDNGGVHTNSGIINKAAYLLSQGGVHYGVSVNGIGRDKMGKIFYRALVYYLTPTSNFSQLRAACVQAAADLYGSTSQEVNSVKQAFNAVGVY", "values": [
      {"measurement": "range of hydrolysis products (SDS-PAGE) versus the other enzymes", "setting": "casein [1]", "result": "much broader range of hydrolysis products"},
      {"measurement": "rate of hydrolysis and acid-soluble protein products versus the other enzyme preparations", "setting": "casein [1]; [7]", "result": "more rapidly and that more acid-soluble protein products are produced"},
      {"measurement": "range of hydrolysis products (SDS-PAGE) versus the other enzymes", "setting": "[2]", "result": "much broader range of hydrolysis products"},
      {"measurement": "rate of hydrolysis and acid-soluble protein products versus the other enzyme preparations", "setting": "[2]; [7]", "result": "more rapidly and that more acid-soluble protein products are produced"},
      {"measurement": "activity and stability in the presence of high concentrations of denaturing agents", "setting": "[3]", "result": "active and stable"},
      {"measurement": "relative activity", "setting": "[3]; GndHCl 0 M", "result": 100, "unit": "%"},
      {"measurement": "relative activity", "setting": "[3]; GndHCl 1.0 M", "result": 95, "unit": "%"},
      {"measurement": "relative activity", "setting": "[3]; GndHCl 2.0 M", "result": 83, "unit": "%"},
      {"measurement": "relative activity", "setting": "[3]; GndHCl 3.0 M", "result": 68, "unit": "%"},
      {"measurement": "relative activity", "setting": "[3]; GndHCl 4.0 M", "result": 50, "unit": "%"},
      {"measurement": "relative activity", "setting": "[3]; GndHCl 5.0 M", "result": 40, "unit": "%"},
      {"measurement": "relative activity", "setting": "[3]; GndHCl 5.5 M", "result": 15, "unit": "%"},
      {"measurement": "relative activity", "setting": "[3]; GndHCl 6.0 M", "result": 0, "unit": "%"},
      {"measurement": "relative activity", "setting": "[3]; SDS 0 % w/v", "result": 100, "unit": "%"},
      {"measurement": "relative activity", "setting": "[3]; SDS 0.25 % w/v", "result": 94, "unit": "%"},
      {"measurement": "relative activity", "setting": "[3]; SDS 0.5 % w/v", "result": 81, "unit": "%"},
      {"measurement": "relative activity", "setting": "[3]; SDS 0.75 % w/v", "result": 57, "unit": "%"},
      {"measurement": "relative activity", "setting": "[3]; SDS 1.0 % w/v", "result": 40, "unit": "%"},
      {"measurement": "relative activity", "setting": "[3]; SDS 1.25 % w/v", "result": 29, "unit": "%"},
      {"measurement": "relative activity", "setting": "[3]; SDS 1.5 % w/v", "result": 22, "unit": "%"},
      {"measurement": "relative activity", "setting": "[3]; SDS 2.0 % w/v", "result": 0, "unit": "%"},
      {"measurement": "relative activity", "setting": "[3]; Urea 0 M", "result": 100, "unit": "%"},
      {"measurement": "relative activity", "setting": "[3]; Urea 0.5 M", "result": 97, "unit": "%"},
      {"measurement": "relative activity", "setting": "[3]; Urea 1.0 M", "result": 91, "unit": "%"},
      {"measurement": "relative activity", "setting": "[3]; Urea 2.0 M", "result": 93, "unit": "%"},
      {"measurement": "relative activity", "setting": "[3]; Urea 3.0 M", "result": 86, "unit": "%"},
      {"measurement": "relative activity", "setting": "[3]; Urea 4.0 M", "result": 72, "unit": "%"},
      {"measurement": "relative activity", "setting": "[3]; Urea 5.0 M", "result": 63, "unit": "%"},
      {"measurement": "relative activity", "setting": "[3]; Urea 7.5 M", "result": 35, "unit": "%"},
      {"measurement": "specific activities at 37° C., wild-type versus mutant", "setting": "casein [4]", "result": "identical"},
      {"measurement": "Specific activity casein", "setting": "casein [4]; casein 0.8%, pH 7.5, 5 mM CaCl2", "result": "3.9 ± 0.7 (U/mg) × 10^−3"},
      {"measurement": "degradation of B. licheniformis α-amylase", "setting": "[5]; 80° C. and lower", "result": "No significant degradation"},
      {"measurement": "hydrolysis of B. licheniformis α-amylase", "setting": "[5]; 100° C.", "result": "completely hydrolysed"},
      {"measurement": "rise of temperature for optimum activity versus wild-type", "setting": "casein [6]", "result": 21, "unit": "°C"},
      {"measurement": "Topt (optimum temperature for activity)", "setting": "casein [6]; casein 0.8%, 30 minutes", "result": 95, "unit": "°C"}
    ]}
  ]
}
